Test results: publication PMC5614712 (Biochemistry and Biophysics Reports, 2017)

Target: the molecule itself
Assay: crystal structure

B1: Y93H ttCK (uridine-cytidine kinase TTHA0578 of Thermus thermophilus HB8, Tyr93 replaced by His) (enzyme)
chain: MSAPKPFVIGIAGGTASGKTTLAQALARTLGERVALLPMDHYYKDLGHLPLEERLRVNYDHPDAFDLALYLEHAQALLRGLPVEMPVYDFRAHTRSPRRTPVRPAPVVILEGILVLYPKELRDLMDLKVFVDADADERFIRRLKRDVLERGRSLEGVVAQYLEQVKPMHLHFVEPTKRYADVIVPRGGQNPVALEMLAAKALARLARMGAA
- stoichiometry N: 4
